Results published in the supplement of paper PMC9170038.

The sequences below were run on MS2 coat protein (assay: apparent KD of MS2 coat protein; higher = weaker reporter binding). Conditions: Eterna round: R107; input ligand: arginine 13.2 mM.
Procedure: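 RNA-MaP round R107: designed RNA switches with theophylline, tryptophan, arginine or FMN aptamers are transcribed on-chip within common flanks. They are titrated with SNAP-549-labelled MS2 coat protein in RNA-MaP buffer (100 mM Tris pH 7.5, 80 mM KCl, 4 mM MgCl2), without ligand or with the indicated ligand. Median apparent KD per design.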

First: AUAACAUGAGGAUCACCCAUGUAAGCUGAAGGAGCGGACGAAAGUCCAGGUAGGUCGCAGCGUUCCUUCACCUCAUGAGAAGGAG [SSArg-A #30 with U all better]
Second: UAAUGCAGGUCGGCCGCCACUACAACAUGAGGAUCACCCAUGUACAUGUUGUAGUACGGUAUGAGUAGGACCGGGACCUGCAUAA [Trp-Ms2-M'-T'-(MT)'_Design1]
The “apparent KD of MS2 coat protein” value of the first is 12-fold lower: 17.8 nM for the first, 213 nM for the second.

“AAUGUGAAGGCGGCCGCCACUGAUAAUAGACAUGAGGAUCACCCAUGUAUAAAUCCUCAAUAAGACAGGACCGGGCCAUCUACGU [#25 Exclusion Tryptophan B]” and “ACGGAUCGGAAACGAUCCGCGGCUAGGGUGCGAGGACCGGUACGGCCGCCACUCGGGUAACAUGAGGAUCACCCAUGUCUGAUUU [ETA NP+V+V2 #14]” are within 1.5-fold of each other in “apparent KD of MS2 coat protein” value: 59 nM for the first, 50.6 nM for the second.

“AAUGUAUGGCACAUGAGGAUCACCCAUGUGCGAGGACCGGUACGGCCGCCACUCGGUCCUGGGAACUUAUUACUAUACAUUAAUG [XTryp A #18]” and “GUAUGGAAACAUACUAUGGUAUCGUGAGAUACCAGUACAGAAAUGUACCCUUGGCAGCUCGCGCAUACAUGAGGAUCACCCAUGU [Ex Theophylline A 10]” are within 1.5-fold of each other in “apparent KD of MS2 coat protein” value: 11.9 nM for the first, 16.4 nM for the second.

“ACAUGAGGAUCACCCAUGUAUGACUAUCCUCGAGGACCGGUACGGCCGCCACUCGAACGAGUGGCUCGCGAGUGCGCACUUGCGA [5' end]” and “UUCGUAUUGUCGGCCGCCACUGCAACAUGAGGAUCACCCAUGUAAGAAUGGUUGUAAAUAUAUUACAGGACCGGGACAAUAGUAA [JR_ExcTryptoB_Sub018]” are within 1.5-fold of each other in “apparent KD of MS2 coat protein” value: 16.7 nM for the first, 16 nM for the second.

Compared with “UUUCUUUUCUUUCUUUCCUUUCAAACCGAAGGAGCGGGAACAAACCCAGGUAGGUCGCGGUGUGACAUGAGGAUCACCCAUGUGU [Exclusion - Arginine]”, “UAAUUUAUAGGGUAUAUCAGAUUAACUGAAGGAGCGUGGUAAUACACAGGUAGGUCGCAGAUGGAACAUGAGGAUCACCCAUGUU [JR_ExcArginiA_Sub016]” is 3.7-fold lower in “apparent KD of MS2 coat protein” value: 65.5 nM for the first, 17.6 nM for the second.

“GAGUAGAAGACGGCCGCCACUAAACAUGAGGAUCACCCAUGUCGUGAUCCGUUACCUAGAGUAGAUAGGACCGGGUCAUAUAGUC [Exclusion Tryptophan B GF 15]” and “GGCAAGCGAGACAUGAGGAUCACCCAUGUUCGAGGACCGGUACGGCCGCCACUCGGUGGACUCAUGGUAAAGCCGGUGAGCCAAA [AK 1 SS Trypt (A)]” are within 1.5-fold of each other in “apparent KD of MS2 coat protein” value: 27.5 nM for the first, 27.4 nM for the second.

“GAGACGUCGGGAAGGAGCGCAUCAAAACCACACAUGAGGAUCACCCAUGUAUAAAUAUGCAUGCAGGUAGGUCGCCCGGUGUCCA [SS-ArgB16]” and “AAAUAAAUAACUGAUACCAGUGUACUGACAUGAGGAUCACCCAUGUUGGGUUUUGUUGUACACCCUUGGCAGCAGAAAUAUAAAA [AstrosExyTheB#1]” are within 1.5-fold of each other in “apparent KD of MS2 coat protein” value: 24.2 nM for the first, 28.7 nM for the second.

Going from “CCCAAAUAGAUAUUUGGGAUUUUACUCGAAGGAGCGUCAUAGUAGGCAGGUAGGUCGCGAGACAUGAGGAUCACCCAUGUAGAGA [ss-argA-N]” to “AGGUACAGCAGGUGAUUCUGGCUGUACCAACGAGGACCGGUACGGCCGCCACUCGAAUAAACAUGAGGAUCACCCAUGUACAAAU [T''-M-T'-T-MS2 - Design 7]”, the “apparent KD of MS2 coat protein” value falls from 34.1 nM to 20.3 nM (1.7-fold).

“GGGAAAGGAGAAGAUACCAGCCGCCUCACAAGUCUACACUACAUGAGGAUCACCCAUGUGGGCCCUUGGCAGCUUGACCGCGAAA [theeternabot_exclusion_MS2_Theo_B_20]” and “UUACAUGAGGAUCACCCAUGUCAUACAGAAGGAGCGUCACAUAAGACAGGUAGGUCGCUGUUAUUUUUUACUAUUAUAUCCUCUA [JR_Nu_ExcArginiA_Sub030]” are within 1.5-fold of each other in “apparent KD of MS2 coat protein” value: 23.2 nM for the first, 25 nM for the second.

Going from “AUCUCAUAGAGUGAUACCAGACUACAUGAGGAUCACCCAUGUUAGAUUUAAAUAUCAUUUGUCCCUUGGCAGCACAUUAAGUACA [JR_Nu_SSTheophyB_Sub021]” to “ACACGUGAGGAUCAUCCAUGUGCCCAUGAAGGAGCGUGGGAAACCACAGGUAGGUCGCAUGACAUGAGGAUCACCCAUGUUUAUU [#04 Exclusion - Arginine A]”, the “apparent KD of MS2 coat protein” value rises from 14.2 nM to 43.1 nM (3-fold).

Going from “AAUCGGAGAUGAAGGAGCGCGUACAUGAGGAUCACCCAUGUAUCAAAGCUUCUCCCGUGUAUGCAGGUAGGUCGCAUUUCCACGU [Ceriedan]” to “GCGAUACAUGAGGAUCACCCAUGUGCAGAUACCAGAGGUGCAUGCCUCCCUUGGCAGCUGCGACGCUCUGGCAUCUUGUGGGAUG [Same State Theophylline A GF20]”, the “apparent KD of MS2 coat protein” value rises from 10.1 nM to 37.6 nM (3.7-fold).

Going from “AGCCCGUGAGCGGCCGCCACUGGAGGCUUUGCGCGACAUGAGGAUCACCCAUGUGUGCCCGGCGUUAGGACCGGGUUCGCGUGGU [#1 Same State - Tryptophan B Attempt #18 (HarryS)]” to “CUGCCAUGCAGAGAUACCAGUGCGCUCAGCACAUGAGGAUCACCCAUGUCGGCUGCCGAUCACCCUUGGCAGCUCUGCAUGGCAG [?@#$_]”, the “apparent KD of MS2 coat protein” value falls from 30 nM to 12 nM (2.5-fold).

First: CUCCUGGGAGCGGCCGCCACUGGAGGCCUCGCGCGACAUGAGGAUCACCCAUGUUGGCCCGGCCUCAGGACCGGGUUCGCGCGAG [Same State - Tryptophan B Attempt #3]
Second: GCAUUAUUAUUAGAUACCAGUGUCGCAGGCGACAUGAGGAUCACCCAUGUAAAGUUACUCCACCCUUGGCAGCUAGUUCGACUAC [theeternabot_sameState_MS2_Theo_B_21]
The “apparent KD of MS2 coat protein” value of the first is 7-fold lower: 8.01 nM for the first, 56 nM for the second.

First: GAUGAACUAUAUGAUACCAGACAACAUGAGGAUCACCCAUGUGUAUGUCGUCCUCUGCCUGUCCCUUGGCAGCGUAUAGUUUAUC [XTheo B #17]
Second: AAUACCGGAUCGGCCGCCACUGGUUGGCCCUGUGUACAUGAGGAUCACCCAUGUCCAUCCCAAACCAGGACCGGGAUCUUUGUGC [Ededmate]
The “apparent KD of MS2 coat protein” value of the first is 3.1-fold higher: 36.8 nM for the first, 11.7 nM for the second.

Going from “AGCGCAGGUCCUGAUACCAGAGACAUGAGGAUCACCCAUGUCCGGUGGUCCUGCCACAGGCUCCCUUGGCAGCAGGGCUUGUGCU [Exclusion Theophylline B GF9]” to “UCCUCCUCCGCAAGGAGGAGGAGUUGCGAUACCAGCACGGCAACGUGCCCUUGGCAGCGCACAUGAGGAUCACCCAUGUCAUGUU [#1 Exclusion - Theophylline A Attempt #10 (HarryS)]”, the “apparent KD of MS2 coat protein” value falls from 31.4 nM to 15.5 nM (2-fold).

“ACUUCAUGAGGUGAUACCAGCCAAUGACAUGAGGACAUGAGGAUCACCCAUGUUUAUGUAGGCCCUUGGCAGCAUUGUAACAUGA [Same State Theophylline B 4]” and “ACAUGAGGAUCACCCAUGUGUGUAAAUCCUCGAGGACCGGUACGGCCGCCACUCGAACGAGUGUAAGAUGAAUGUUACAUUCAUC [SS Trp A s2]” are within 1.5-fold of each other in “apparent KD of MS2 coat protein” value: 101 nM for the first, 70.8 nM for the second.

Compared with “GCAUCCUAGUCGGCCGCCACUGCAAUUGUAAUACUGCUACAUGAGGAUCACCCAUGUCCAUGUAGCAGGACCGGGACUAGGAUGC [SS Tryp B #16]”, “ACAUGAGGAUCACCCAUGUAAUGGCACGAUACCAGCUGAUCCCGUGGCCCUUGGCAGCGUCCGGUGUGGUCCGGCGGGUUGGACG [LLLMULLIN]” is 9.8-fold lower in “apparent KD of MS2 coat protein” value: 142 nM for the first, 14.5 nM for the second.

Compared with “ACAUGAGGGCGAAGGAGCGCGAACAUGAGGAUCACCCAUGUCUAUAUCCGUCCGCAUGUAUCGCAGGUAGGUCGCGCUGUUACUU [#13 Exclusion - Arginine B]”, “AAAUAAAUACAUGAGGAUCACCCAUGUGAAGGAGCGCCCGUUAGGGCAGGUAGGUCGCACAUGAAAGGGAAGCGAAAGAAAUAAU [ArgEX 15 #OpenEnded]” is 3-fold higher in “apparent KD of MS2 coat protein” value: 8.99 nM for the first, 26.8 nM for the second.

First: ACGACGCAUAGUGAUACCAGUAGAACAUGAGGAUCACCCAUGUCUGUGACGCACAAACUCUGCCCUUGGCAGCACUAUGCGUCAG [SSTheo B #7]
Second: UGUAUGUGAUCUGAUACCAGCUUUGAUAACCUGAGGAUCACCCUGGUAAGGCGAAAGCCAAGCCCUUGGCAGCAGAUCGCAUACU
The “apparent KD of MS2 coat protein” value of the first is 3.3-fold lower: 12 nM for the first, 40.1 nM for the second.
